Measurements as given in paper doi:10.1101/2025.11.15.688598 (bioRxiv, 2025).

Tests used:
[1] = target: T1, Cy5-labeled proliferating cell nuclear antigen (PCNA) (human, UniProt P12004 1-261, Cy5 maleimide on cysteine(s), positions not stated); experiment: single-molecule two-colour fluorescence imaging (Cy3-Cy5 co-localisation, Cy3 photobleaching steps); Cy5-PCNA loaded by RFC on bi-biotinylated lambda DNA on the DNA skybridge; 1 μM PAF15-Cy3 in reaction buffer incubated 10 min, unbound washed out; images 10-15 min after the start of washing; 150 mM potassium glutamate; room temperature (approximately 22°C); conditions: both partners purified
T1 sequence (P12004 whole entry): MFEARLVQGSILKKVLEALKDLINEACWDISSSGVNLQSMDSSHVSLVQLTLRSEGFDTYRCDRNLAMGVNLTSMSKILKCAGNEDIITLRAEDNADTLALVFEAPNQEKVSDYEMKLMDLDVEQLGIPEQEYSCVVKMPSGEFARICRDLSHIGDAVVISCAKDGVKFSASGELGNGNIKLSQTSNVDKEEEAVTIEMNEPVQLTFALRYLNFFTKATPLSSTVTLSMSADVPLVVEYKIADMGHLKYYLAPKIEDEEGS

[2] = target: T1, Cy5-labeled proliferating cell nuclear …; experiment: single-molecule two-colour fluorescence imaging (Cy3-Cy5 co-localisation, FRET, Cy3 photobleaching steps); Cy5-PCNA loaded by RFC on bi-biotinylated lambda DNA on the DNA skybridge; 1 μM PAF15-Cy3 in reaction buffer incubated 10 min, unbound washed out; images 10-15 min after the start of washing; 100 mM potassium glutamate; room temperature (approximately 22°C); conditions: both partners purified

stoichiometry N [1]: 1 PAF15 per PCNA ring
stoichiometry N [2]: 2 PAF15 per PCNA ring
B1: Cy3-labeled PAF15 (Cys54Ser variant, Cy3 at Cys99) (natural protein, human, UniProt Q15004 2-111, looked up)
chain: VRTKADSVPGTYRKVVAARAPRKVLGSSTSATNSTSVSSRKAENKYAGGNPVSVRPTPKWQKGIGEFFRLSPKDSEKENQIPEEAGSSGLGKAKRKACPLQPDHTNDEKE
modifications: Cy3 on Cys99 (maleimide-thiol reaction)
